Data: PMC8903895

Target: dengue virus envelope protein (dengue virus serotype 2 strain New Guinea C)
Experiment: proximity ligation

Substance	PLA foci per cell (WT cells) (foci per cell)	PLA foci per cell (YBX1 KO1 cells) (foci per cell)	PLA foci per cell (YBX1 KO2 cells) (foci per cell)
dengue virus capsid protein (natural protein)	11	5	7
dengue virus prM protein (natural protein)	26	58	27
